# Measurements published in PMC12193508.
# Key:
# [1] = molecular target: MMsHsp (sHsp of Methanococcus maripaludis) (Methanococcus maripaludis); assay: AUC; sedimentation velocity at 40 °C, 0.1 mg/mL, 40,000 rpm, Rayleigh interference optics, c(s20,w) with SEDFIT; oligomers of one protein
# [2] = molecular target: MMsHsp (sHsp of Methanococcus maripaludis) (Methanococcus maripaludis); assay: AUC; sedimentation velocity at 40 °C, 1.0 mg/mL, 40,000 rpm, Rayleigh interference optics, c(s20,w) with SEDFIT; oligomers of one protein
substance,measurement,setting,value
MMsHsp (sHsp of Methanococcus maripaludis) (natural protein),"w, weight fraction of peak a (N 2)",[1],31.3%
same,"w, weight fraction of peak b (N 8)",[1],4.2%
same,"w, weight fraction of peak c (N 18)",[1],10.9%
same,"w, weight fraction of peak d (N 24)",[1],53.6%
same,stoichiometry N,[2],16
same,"w, weight fraction of peak a (N 2)",[2],16.8%
same,"w, weight fraction of peak b (N 8)",[2],4.6%
same,"w, weight fraction of peak c (N 17)",[2],5.3%
same,"w, weight fraction of peak d (N 24)",[2],73.3%
